B1: AID-APOBEC2 chimera #1 (enzyme)
chain: MDSLLMNRRKFLYQFKNVEYSSGRNKTFLCYVVEAQGKGGQVQASRGYLEDEHAAELLFLRYISDWDLDPGRCYRVTWFTSWSPCYDCARHVADFLRGNPNLSLRIFTARLYFCEDRKAEPEGLRRLHRAGVQIAIMTFKDYFYCWNTFVENHERTFKAWEGLHENSVRLSRQLRRILLPLYEVDDLRDAFRTLGL
notes: range 60-96; Flag-tagged in the HEK293T co-immunoprecipitation; also called AID-A2 #1; not shown: its end of the chain and its l
B2: Flag-tagged rat APOBEC1 (enzyme, UniProt P38483 1-229, looked up)
chain: MSSETGPVAVDPTLRRRIEPHEFEVFFDPRELRKETCLLYEINWGGRHSIWRHTSQNTNKHVEVNFIEKFTTERYFCPNTRCSITWFLSWSPCGECSRAITEFLSRYPHVTLFIYIARLYHHADPRNRQGLRDLISSGVTIQIMTEQESGYCWRNFVNYSPSNEAHWPRYPHLWVRLYVLELYCIILGLPPCLNILRRKQPQLTFFTIALQSCHYQRLPPHILWATGLK
notes: also called A1; not shown: N-terminal Flag tag (annealed oligonucleotides AO1 and AO2)
B3: Flag-tagged APOBEC2 (enzyme, UniProt Q9Y235 1-224, looked up)
chain: MAQKEEAAVATEAASQNGEDLENLDDPEKLKELIELPPFEIVTGERLPANFFKFQFRNVEYSSGRNKTFLCYVVEAQGKGGQVQASRGYLEDEHAAAHAEEAFFNTILPAFDPALRYNVTWYVSSSPCAACADRIIKTLSKTKNLRLLILVGRLFMWEEPEIQAALKKLKEAGCKLRIMKPQDFEYVWQNFVEQEEGESKAFQPWEDIQENFLYYEEKLADILK
notes: also called A2; not shown: N-terminal Flag tag (annealed oligonucleotides AO1 and AO2)

Assays:
Myc-human Hsp90beta [1] = target: T1, Myc-human Hsp90beta (human, UniProt P08238 1-724); test: anti-Flag co-immunoprecipitation from cotransfected HEK293T, western blot anti-myc (FIG. 2C)
T1 construct: also called myc-Hsp90beta; myc-tagged Hsp90beta; not shown: N-terminal myc tag of pCMV-3Tag2
T1 sequence (P08238 whole entry): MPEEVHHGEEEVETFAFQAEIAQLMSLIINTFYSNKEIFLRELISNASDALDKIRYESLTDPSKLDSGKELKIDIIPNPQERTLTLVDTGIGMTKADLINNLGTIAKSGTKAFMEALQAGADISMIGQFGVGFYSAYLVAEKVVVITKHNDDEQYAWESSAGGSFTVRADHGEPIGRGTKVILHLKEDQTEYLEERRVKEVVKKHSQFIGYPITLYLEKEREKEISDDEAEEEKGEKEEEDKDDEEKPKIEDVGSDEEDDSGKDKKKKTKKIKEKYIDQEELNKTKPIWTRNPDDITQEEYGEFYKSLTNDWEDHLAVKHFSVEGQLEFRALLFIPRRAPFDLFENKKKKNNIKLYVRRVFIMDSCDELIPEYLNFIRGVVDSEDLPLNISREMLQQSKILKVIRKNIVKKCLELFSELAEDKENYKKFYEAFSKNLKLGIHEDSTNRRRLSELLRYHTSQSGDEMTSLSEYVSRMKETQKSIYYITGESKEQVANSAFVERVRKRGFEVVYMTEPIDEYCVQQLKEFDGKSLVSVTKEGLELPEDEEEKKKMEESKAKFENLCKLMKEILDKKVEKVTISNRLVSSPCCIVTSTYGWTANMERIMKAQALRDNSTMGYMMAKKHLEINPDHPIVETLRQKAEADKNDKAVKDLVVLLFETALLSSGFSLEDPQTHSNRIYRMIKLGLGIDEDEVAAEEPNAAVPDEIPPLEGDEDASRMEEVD

Myc-human Hsp90beta [2] = target: T1, Myc-human Hsp90beta; test: anti-Flag co-immunoprecipitation from cotransfected HEK293T, western blot anti-myc

Binder	binding result (Myc-human Hsp90beta [1])	binding result (Myc-human Hsp90beta [2])
B1	no binding	–
B2	–	no binding
B3	–	no binding

From patent US20110237560A1 (published 2011)
